Measurements from PMC6098011, “Insights into degradation mechanism of N-end rule substrates by p62/SQSTM1 autophagy adapter” (Nature Communications, 2018).
Where a chain is given by its changes, count along the chain named. Primed or numbered codes have the meaning given here. No end group written: not given here. FITC′ = fluorescein isothiocyanate label

Tests used:
[1] = molecular target: the molecule itself; experiment: SEC-MALS; physiological pH 7.4; buffer not stated
[2] = molecular target: the molecule itself; experiment: SEC-MALS; 50 mM sodium acetate pH 4.5, 100 mM NaCl, 1 mM TCEP
[3] = molecular target: the molecule itself; experiment: SEC-MALS; 50 mM Tris pH 8.0, 100 mM NaCl, 1 mM TCEP; 1-3 mg/ml injected; Superdex 200 Increase or Superose 6 Increase
[4] = molecular target: T1, R-BiP peptide (REEEDK–FITC); experiment: fluorescence polarisation; FITC-labeled peptide 100 nM, p62 construct titrated 400 nM to 3 mM; 50 mM Tris pH 8.0, 100 mM NaCl, 1 mM DTT; 384-well; details: both partners purified
T1 construct: Arg attached to the new N-terminus of cleaved BiP (N-terminal arginylation, R*); BiP/GRP78 from E19 (E19b-E20b-E21b-D22b printed); also called FITC-labeled R-BiP peptide; FITC-labeled R-BiP/GRP78 peptide
T1 peptide: REEEDK-{FITC′}

B1: MBP-fused PB1-ZZ of p62 (residues 1-181) wild type (domain or fragment)
chain: not shown
notes: p62/SQSTM1, human, PB1-ZZ residues 1-181; Oligomeric state depends on pH (hexameric or higher at pH 8.0, polymer at pH 6.0, about a trimer at pH 4.5); also called MBP-PB1-ZZ WT; PB1-ZZ WT
With B1 the “stoichiometry N” value [1] was ≥ 10, the “stoichiometry N” value [2] was ~3 and the “stoichiometry N” value [3] was ≥ 6.

B2: MBP-PB1-ZZ D149R (domain or fragment, human, UniProt Q13501 1-181, looked up)
chain: MASLTVKAYLLGKEDAAREIRRFSFCCSPEPEAEAEAAAGPGPCERLLSRVAALFPALRPGGFQAHYRDEDGDLVAFSSDEELTMAMSYVKDDIFRIYIKEKKECRRDHRPPCAQEAPRNMVHPNVICDGCNGPVVGTRYKCSVCPDYRLCSVCEGKGLHRGHTKLAFPSPFGHLSEGFSH
notes: p62/SQSTM1, human, PB1-ZZ residues 1-181
B2 was tested, and the “fold reduction of affinity against WT” value [4] was ~30 fold.

B3: MBP-PB1-ZZ D129N (domain or fragment, human, UniProt Q13501 1-181, looked up)
chain: B2 chain with D129N, R149D
notes: as for B2
In the case of B3, the “fold reduction of affinity against WT” value [4] is reported as ~30 fold.

B4: MBP-PB1-ZZ N132L (domain or fragment)
chain: not shown
notes: as for B2
With B4 the “fold reduction of affinity against WT” value [4] was ~30 fold.

B5: MBP-PB1-ZZ K7A (domain or fragment)
chain: not shown
notes: p62/SQSTM1, human, PB1-ZZ residues 1-181; also called monomeric PB1-ZZ mutant
B5 was tested, and the “fold higher affinity of PB1-ZZ WT than of this mutant” value [4] was > 10 fold.

B6: MBP-PB1-ZZ D69A (domain or fragment)
chain: not shown
notes: as for B5
B6 was tested, and the “fold higher affinity of PB1-ZZ WT than of this mutant” value [4] was > 10 fold.

B7: MBP-PB1-ZZ D147R (domain or fragment, human, UniProt Q13501 1-181, looked up)
chain: B2 chain with D147R, R149D
notes: as for B2
For B7, the “fold reduction of affinity against WT” value [4] was ~30 fold.

B8: Flag-ZZ (ZZ-domain of p62 with the flag-tag) (domain or fragment)
chain: not shown
In the case of B8, the Kd [4] is reported as > 800 µM.
